Publication PMC12408340 (Nature, 2025)

Columns and labels:
[1] = molecular target: FCoV-23 S domain B (receptor-binding domain, RBD), residues 529-677 (FCoV-23 (feline coronavirus)); assay: BLI; […]; global 1:1 fit; […]
[2] = molecular target: T1, CCoV-HuPn-2018 S domain B (receptor-binding domain, RBD), residues 523-671 (CCoV-HuPn-2018 (canine coronavirus)); assay: BLI
T1 chain: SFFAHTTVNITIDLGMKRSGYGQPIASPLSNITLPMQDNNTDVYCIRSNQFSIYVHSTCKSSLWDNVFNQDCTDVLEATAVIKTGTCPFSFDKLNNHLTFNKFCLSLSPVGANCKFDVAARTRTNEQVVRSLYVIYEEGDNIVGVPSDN

cryo-EM structure = molecular target: the molecule itself; assay: cryo-EM structure

“Felis catus APN ectodomain fused to a human Fc fragment (FcAPN-Fc) (from UniProt P79171 64-967) (Fc fusion)” was tested, and the Kd [1] was 11 nM.

With “Canis lupus familiaris APN ectodomain fused to a human Fc fragment (CfAPN-Fc) (from UniProt P79143 71-975) (Fc fusion)” the Kd [1] was 1.3 nM.

B1: Felis catus APN ectodomain fused to a human Fc fragment (FcAPN-Fc) (Fc fusion)
chain: DQSKPWNVYRLPKTLIPDSYNVTLRPYLTPNNKGLYVFTGTNIVRFTCKESTNIVIIHSKRLNYTSHQGHMVALSGVGGFHPQPVIVRTELVELTEYLVVHLQEPLVAGRQYEMNSEFQGELADDLAGFYRSEYMENGVKKVLATTHMQATEARKSFPCFDEPAMKATFNITIIHPNNLVALSNMLPRGPSVPFGEDPTWKVTEFETTPIMSTYLLAYIVSEFSYVETRAPSGVLIRIWARPSAINQGHGDYALKVTGPILDFFSQHYDTPYPLNKSDQIALPDFNAGAMENWGLVTYRESALLYDRQSSSSGNQERVVTVIAHELAHQWFGNLVTLEWWNDLWLNEGFASYVEYLGADFAEPTWNLKDLMVLNDVYRVMAVDALASSHPLSTPASEINTPAQISEVFDSISYSKGASVLRMLSNFLTEDLFKMGIASYLHTYKYGNTIYLNLWEHLQQVVDKQPTIKLPDTVSAIMDRWILQMGFPVITVDTQTGTISQQHFLLDPQSVVTRPSQFNYLWIVPISSVRSGSPQAHYWLPGVEKAQNDLFKTTANDWVLLNLNVTGYYLVNYDNENWKKIQTQLQTDLSVIPVINRAQVIHDAFNLASAQKVPVTLALNNTLFLIQETEYMPWQAALSSLSYFKLMFDRSEVYGPMKRYLKKQVTPLFNHFERVTKNWTDHPQTLMDQYSEINAVSTACSYGVPECEKLAATLFAQWKKNPQNNPIHPNLRSTVYCNAIAQGGEEEWNFVWEQFLKAELVNEADKLRGALACSNQVWILNRFLSYTLDPNLIRKQDVTSTLSSISSNVVGQTLVWDFVQSNWKKLFQDYGTGSFSFSNLIQAVTRRFSTEFELQQLEQFKKNNMDTGFGSATRALEQALEKTKANLKWVKENKDVVLRWFTENS
B1 showed a Kd [2] of 28 nM.

B2: Felis catus APN ectodomain dimer without the Fc fusion (FcAPN) (domain or fragment)
chain: B1 chain
For B2, the “stoichiometry N” value (cryo-EM structure) was 2.

B3: Canis lupus familiaris APN ectodomain fused to a human Fc fragment (CfAPN-Fc) (Fc fusion)
chain: LAQSKPWNHYRLPKTLIPSSYNVTLRPYLTPNSNGLYTFKGSSTVRFTCKESTSMIIIHSKKLNYTNIQGQRVALRGVGGSQAPAIDRTELVEVTEYLVVHLREPLQVNSQYEMDSKFEGELADDLAGFYRSEYTENGVKKVLATTQMQAADARKSFPCFDEPAMKATFNITLIHPSNLVALSNMLPRGPSVPFTEEPNWNVTEFETTPIMSTYLLAYIVSEFKNVQENTPSNVLIRIWARPSAMDQGHGNYALRVTGPILDFFSRHYDTPYPLNKSDQIALPDFNAGAMENWGLVTYRESALLYDPQSSSIGNKERVVTVIAHELAHQWFGNLVTLEWWNDLWLNEGFASYVEYLGADYAEPTWNLKDLIVLNEVYRVMAVDALASSHPLSSPASEVNTPAQISEVFDSISYSKGASVLRMLSSFLTEDLFKKGVASYLHTFAYQNTIYLDLWNHLQWALGNQTAINLPYTVNAIMDRWILQMGFPVVTVDTTTGTLSQKHFLLDPQSNVTRPSKFNYLWIIPISSVKSGTQQAHYWMPDNAKVQNDLFKTTGDEWVLLNLNVTGYYLVNYDQNNWKKIHTQLQTDLSVIPVINRAQVIHDTFDLASAQIVPVTLALNSTLFLNQETEYMPWEAALSSLSYFKLMFDRSEVYGPMKNYLRKQVTPLFNHFEKITQNWTDHPQTLTEQYNEINAVSTACTYGVPKCKDLVSTLFAEWRKNPQNNPIYPNLRSTVYCNAIAQGGEEEWNFVWEQFRNTSLVNEADKLRSALACSTQVWILNRYLSYTLNPEFIRKQDVISTLSSIASNVIGQSLAWDFIQSNWKKLFEDYGTGSFSFSNLIQAVTRRFSTEFELQQLEQFKANNMDTGFGSGTRALEQALEKTKANIKWVKENKEAVLQWFRENSQ
In the case of B3, the Kd [2] is reported as 2.6 nM.
